B1: DVD496 (bispecific antibody, human IgG1, kappa)
heavy: not shown
light: DIQMTQSPSSLSASVGDRVTITCRASQDVSTAVAWYQQKPGKAPKLLIYSASFLYSGVPSRFSGSGSGTDFTLTISSLQPEDFATYYCQQSYTTPPTFGQGTKVEIKRTVAAPSVFIFPPDIQMTQSSSYLSVSLGGRVTITCKASDHINNWLAWYQQKPGNAPRLLISGATSLETGVPSRFSGSGSGKDYTLSITSLQTEDVATYYCQQYWSIPLTFGAGTKLELKRTVAAPSVFIFPPSDEQLKSGTASVVCLLNNFYPREAKVQWKVDNALQSGNSQESVTEQDSKDSTYSLSSTLTLSKADYEKHKVYACEVTHQGLSSPVTKSFNRGEC
notes: DVD-Ig; N-term; VD AB070 (VEGF), C-term; VD AB072 (DLL4); HC linker long, LC linker long; also called DVD496H; DVD496L
B2: DVD508 (bispecific antibody, human IgG1, kappa)
heavy: not shown
light: B1 light
notes: DVD-Ig; N-term; VD AB070 (VEGF), C-term; VD AB072 (DLL4); HC linker short, LC linker long; also called DVD508H; DVD508L
B3: DVD526 (bispecific antibody, human IgG1, lambda)
heavy: not shown
light: DIQMTQSPSSLSASVGDRVTITCRASQDVSTAVAWYQQKPGKAPKLLIYSASFLYSGVPSRFSGSGSGTDFTLTISSLQPEDFATYYCQQSYTTPPTFGQGTKVEIKRTVAAPQAVVTQESALTTSPGETVTLTCRSSTGAVTTSNYANWVQEKPDHLFTGLIGGTNNRAPGVPARFSGSLIGDKAALTITGAQTEDEAIYFCALWYSNHWVFGGGTKLTVLGQPKAAPSVTLFPPSSEELQANKATLVCLISDFYPGAVTVAWKADSSPVKAGVETTTPSKQSNNKYAASSYLSLTPEQWKSHRSYSCQVTHEGSTVEKTVAPTECS
notes: DVD-Ig; N-term; VD AB070 (VEGF), C-term; VD AB073 (DLL4); HC linker long, LC linker short; also called DVD526H; DVD526L
B4: DVD532 (bispecific antibody, human IgG1, kappa, lambda)
heavy: not shown
light: DIQMTQSPSSLSASVGDRVTITCRASQDVSTAVAWYQQKPGKAPKLLIYSASFLYSGVPSRFSGSGSGTDFTLTISSLQPEDFATYYCQQSYTTPPTFGQGTKVEIKRTVAAPSVFIFPPQAVVTQESALTTSPGETVTLTCRSSTGAVTTSNYANWVQEKPDHLFTGLIGGTNNRAPGVPARFSGSLIGDKAALTITGAQTEDEAIYFCALWYSNHWVFGGGTKLTVLGQPKAAPSVTLFPPSSEELQANKATLVCLISDFYPGAVTVAWKADSSPVKAGVETTTPSKQSNNKYAASSYLSLTPEQWKSHRSYSCQVTHEGSTVEKTVAPTECS
notes: DVD-Ig; N-term; VD AB070 (VEGF), C-term; VD AB073 (DLL4); HC linker short, LC linker long; also called DVD532H; DVD532L
B5: DVD490 (bispecific antibody, human IgG1, kappa)
heavy: not shown
light: DIQMTQSPSSLSASVGDRVTITCRASQDVSTAVAWYQQKPGKAPKLLIYSASFLYSGVPSRFSGSGSGTDFTLTISSLQPEDFATYYCQQSYTTPPTFGQGTKVEIKRTVAAPDIQMTQSSSYLSVSLGGRVTITCKASDHINNWLAWYQQKPGNAPRLLISGATSLETGVPSRFSGSGSGKDYTLSITSLQTEDVATYYCQQYWSIPLTFGAGTKLELKRTVAAPSVFIFPPSDEQLKSGTASVVCLLNNFYPREAKVQWKVDNALQSGNSQESVTEQDSKDSTYSLSSTLTLSKADYEKHKVYACEVTHQGLSSPVTKSFNRGEC
notes: DVD-Ig; N-term; VD AB070 (VEGF), C-term; VD AB072 (DLL4); HC linker short, LC linker short; also called DVD490H; DVD490L
B6: DVD502 (bispecific antibody, human IgG1, kappa)
heavy: not shown
light: B5 light
notes: DVD-Ig; N-term; VD AB070 (VEGF), C-term; VD AB072 (DLL4); HC linker long, LC linker short; also called DVD502H; DVD502L
B7: DVD470 (bispecific antibody, human IgG1, kappa)
heavy: not shown
light: DIQMTQSPSSLSASVGDRVTITCSASQDISNYLNWYQQKPGKAPKVLIYFTSSLHSGVPSRFSGSGSGTDFTLTISSLQPEDFATYYCQQYSTVPWTFGQGTKVEIKRTVAAPSVFIFPPDIQMTQSPSSLSASVGDRVTITCRASQDVSTAVAWYQQKPGKAPKLLIYSASFLYSGVPSRFSGSGSGTDFTLTISSLQPEDFATTYYCQQSYTGTVTFGQGTKVEIKRTVAAPSVFIFPPSDEQLKSGTASVVCLLNNFYPREAKVQWKVDNALQSGNSQESVTEQDSKDSTYSLSSTLTLSKADYEKHKVYACEVTHQGLSSPVTKSFNRGEC
notes: DVD-Ig; N-term; AB014 (VEGF), C-term; AB015 (DLL4); HC linker long, LC linker long; also called DVD470H; DVD470L
B8: DVD482 (bispecific antibody, human IgG1, kappa)
heavy: not shown
light: B7 light
notes: DVD-Ig; N-term; AB014 (VEGF), C-term; AB015 (DLL4); HC linker short, LC linker long; also called DVD482H; DVD482L
B9: DVD043 (bispecific antibody, human IgG1, kappa)
heavy: not shown
light: DIQMTQSPSSLSASVGDRVTITCSASQDISNYLNWYQQKPGKAPKVLIYFTSSLHSGVPSRFSGSGSGTDFTLTISSLQPEDFATYYCQQYSTVPWTFGQGTKVEIKRTVAAPDIQMTQSPSSLSASVGDRVTITCRASQDVSTAVAWYQQKPGKAPKLLIYSASFLYSGVPSRFSGSGSGTDFTLTISSLQPEDFATTYYCQQSYTGTVTFGQGTKVEIKRTVAAPSVFIFPPSDEQLKSGTASVVCLLNNFYPREAKVQWKVDNALQSGNSQESVTEQDSKDSTYSLSSTLTLSKADYEKHKVYACEVTHQGLSSPVTKSFNRGEC
notes: DVD-Ig; N-term; AB014 (VEGF), C-term; AB015 (DLL4); HC linker short, LC linker short; also called DVD043H; DVD043L
B10: DVD476 (bispecific antibody, human IgG1, kappa)
heavy: not shown
light: B9 light
notes: DVD-Ig; N-term; AB014 (VEGF), C-term; AB015 (DLL4); HC linker long, LC linker short; also called DVD476H; DVD476L
B11: DVD442 (bispecific antibody, human IgG1, kappa)
heavy: not shown
light: DIQMTQSPSSLSASVGDRVTITCSASQDISNYLNWYQQKPGKAPKVLIYFTSSLHSGVPSRFSGSGSGTDFTLTISSLQPEDFATYYCQQYSTVPWTFGQGTKVEIKRTVAAPDIVMTQSPDSLAVSLGERATISCRASESVDNYGISFMKWFQQKPGQPPKLLIYAASNQGSGVPDRFSGSGSGTDFTLTISSLQAEDVAVYYCQQSKEVPWTFGGGTKVEIKRTVAAPSVFIFPPSDEQLKSGTASVVCLLNNFYPREAKVQWKVDNALQSGNSQESVTEQDSKDSTYSLSSTLTLSKADYEKHKVYACEVTHQGLSSPVTKSFNRGEC
notes: DVD-Ig; N-term; AB014 (VEGF), C-term; AB069 (DLL4); HC linker short, LC linker short; also called DVD442H; DVD442L

target: T1, VEGF (UniProt P15692-4 27-191); experiment: SPR (Biacore), DVD-Ig captured, VEGF in solution
T1 construct: Bought reagent; also called vascular endothelial growth factor
T1 sequence (P15692 other isoform, or with tags, fused parts or gaps limits assumed): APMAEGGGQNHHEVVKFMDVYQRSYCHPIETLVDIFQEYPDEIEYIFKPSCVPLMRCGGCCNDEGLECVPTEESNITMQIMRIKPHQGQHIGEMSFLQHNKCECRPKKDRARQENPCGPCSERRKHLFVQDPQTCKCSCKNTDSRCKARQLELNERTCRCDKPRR

Kd	koff	kon	Binder
0.311 nM	0.00658 s⁻¹	2.12e+07 M⁻¹ s⁻¹	B1
0.162 nM	0.000213 s⁻¹	1.31e+06 M⁻¹ s⁻¹	B2
0.675 nM	0.000801 s⁻¹	1.19e+06 M⁻¹ s⁻¹	B3
0.276 nM	0.0123 s⁻¹	4.47e+07 M⁻¹ s⁻¹	B4
0.189 nM	0.000169 s⁻¹	894000 M⁻¹ s⁻¹	B5
0.265 nM	0.000231 s⁻¹	871000 M⁻¹ s⁻¹	B6

target: T2, VEGF (UniProt P15692-4 27-191); experiment: BIACORE SPR
T2 construct: Bought reagent; also called vascular endothelial growth factor
T2 sequence (P15692 other isoform, or with tags, fused parts or gaps limits assumed): as above

Kd	koff	kon	Binder
0.201 nM	0.00024 s⁻¹	1.2e+06 M⁻¹ s⁻¹	B7
0.2 nM	0.000138 s⁻¹	687000 M⁻¹ s⁻¹	B8
0.0746 nM	0.000125 s⁻¹	1.68e+06 M⁻¹ s⁻¹	B9
0.0281 nM	4.74e-05 s⁻¹	1.69e+06 M⁻¹ s⁻¹	B10
0.088 nM	0.00017 s⁻¹	1.93e+06 M⁻¹ s⁻¹	B11
